For 72 sequences, protein stability index results are on record in the supplement of paper PMC10567573.

± gives the standard deviation.

A short description of the data set: protein stability index of a GFP-peptide fusion (GPS, HEK-293T) (PSI 1-6); higher = more stable.
Setting [1] is: treatment: DMSO, c terminus: a fixed tail appended.
The mark [2] stands for this setting: treatment: MLN4924 1 uM, 8 h, c terminus: a fixed tail appended.
[3] abbreviates: treatment: DMSO, c terminus: native.
Setting [4] is: treatment: MLN4924 1 uM, 8 h, c terminus: native.
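Further: 24-mer peptide tiles fused after GFP, lentivirally expressed, FACS-sorted into six equal bins by GFP/DsRed ratio, decoded by Illumina sequencing, PSI is the read-weighted mean bin number.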

SSADDASAWSNIQEAPLQDDSCLN [FAN1] showed a protein stability index under setting [1] of 5.26 ± 0.26 and a protein stability index under setting [2] of 5.33 ± 0.27.

Consider SSCENKRADLVFIIDSSRSVNTHD [MATN2], for which the protein stability index reads like this: under setting [1], 2.81 ± 0.22; under setting [2], 2.92 ± 0.13.

Consider SSIIHEIDSILGNKPYSKKDYRS [KCNAB2], for which the protein stability index is, setting by setting: under setting [3], 3.02 ± 0.37; under setting [4], 3.53 ± 0.28.

SSSKRYTMSRSLDGASVNENHEIY [EPB41L3]: the protein stability index runs as follows: under setting [1], 4.11 ± 0.63; under setting [2], 4 ± 0.45.

With SSSRGSSHCDSPSPQEDGQIMFDV [BNIP3L], the protein stability index by setting is: under setting [1], 4.81 ± 0.26; under setting [2], 4.91 ± 0.18.

As to SSSRNSHLVQHQHPNSRKSSAGGA [ZNF8], the protein stability index reads like this: under setting [1], 4.71 ± 0.43; under setting [2], 4.83 ± 0.23.

In the case of SSSSQIGNDSFQLQVTEDVNSSIK [CLCN6], the protein stability index runs as follows: under setting [1], 5.14 ± 0.06; under setting [2], 4.87 ± 0.18.

On to SSSSSGVLMVGPNFRVGKKIGCGN [CSNK1G1], for which the protein stability index reads like this: under setting [1], 3.58 ± 0.34; under setting [2], 3.68 ± 0.11.

As to SSVEDLKAKFCSTVANDVMLRTGL [NETO1], the protein stability index was 2.97 ± 0.14 under setting [1] and 3.07 ± 0.14 under setting [2].

As for SSVTAAVSGLLVGYELGIISGALL [SLC2A12], the protein stability index reads like this: under setting [1], 2.8 ± 0.2; under setting [2], 2.82 ± 0.18.

For the sequence STPVRREVTDKEQEFAARAAKQLE [EPB41L3], the protein stability index runs as follows: under setting [1], 5.28 ± 0.2; under setting [2], 5.27 ± 0.21.

Consider STQLEMQLEKPKPVKPVTFSTGIK [MNAT1], for which the protein stability index by setting is: under setting [1], 4.28 ± 0.16; under setting [2], 4.43 ± 0.22.

For SVKLRGSSLFMDTEKSGKREFDVR [WEE1], the protein stability index amounted to 3.86 ± 0.36 under setting [1] and 3.94 ± 0.095 under setting [2].

With SVRMRRAEKSVAPSNTGSRTTSVR [NEK8], the protein stability index reads like this: under setting [1], 4.62 ± 0.24; under setting [2], 4.6 ± 0.26.

With SVSSCDQEHQSALEEAKQPKNDNV [SMOC2], the protein stability index runs as follows: under setting [1], 5.38 ± 0.21; under setting [2], 5.64 ± 0.082.

On to SYFSGQGSDTGASLKLASSELERL [JUNB], for which the protein stability index reads like this: under setting [1], 4.182 ± 0.04; under setting [2], 4.427 ± 0.038.

For the sequence SYLIEKVKRKKNVLRLCCKKLKIF [PRAME], the protein stability index reads like this: under setting [1], 3.23 ± 0.36; under setting [2], 3.22 ± 0.28.

On to SYPMRRSYRYKLLNWAYQQVQQNK [STEAP1], for which the protein stability index is, setting by setting: under setting [1], 2.34 ± 0.19; under setting [2], 2.36 ± 0.25.

TASDGGDPLRSGTVLVSVTVFDAN [PCDHGA10]: the protein stability index is, setting by setting: under setting [1], 2.31 ± 0.52; under setting [2], 2.13 ± 0.091.

On to TASSLVKINLQGDIVDRGSTNLGV [ADD1], for which the protein stability index by setting is: under setting [1], 3.36 ± 0.68; under setting [2], 3.36 ± 0.25.

On to TDHQTPPTSPVQGTTPQISPSTLI [HDAC6], for which the protein stability index amounted to 4.93 ± 0.16 under setting [1] and 4.86 ± 0.27 under setting [2].

Consider TDILDLENQRENLEQPFLSVFKKG [PLEKHN1], for which the protein stability index by setting is: under setting [1], 4.52 ± 0.07; under setting [2], 4.24 ± 0.21.

Turning to TDILPQMITLSEAYIQIWKRRDND [USP39], the protein stability index stood at 2.82 ± 0.25 under setting [1] and 2.79 ± 0.14 under setting [2].

Regarding TDQAIFYAVTPLPWCPHLVAVCPI [HDAC6], the protein stability index stood at 3.09 ± 0.61 under setting [1] and 3.22 ± 0.41 under setting [2].

Take TDRDEGANGEVTYSFRKLPDTQLL [PCDHGA10]: the protein stability index under setting [1] was 4.44 ± 0.13 and the protein stability index under setting [2] came out at 4.41 ± 0.22.

For the sequence TEDFWRMLWEHNSTIVVMLTKLRE [PTPRD], the protein stability index is 2.21 ± 0.25 under setting [1] and 2.23 ± 0.27 under setting [2].

For TEEDDGFVDILESDLKDDDAVPPG [CDC25B], the protein stability index runs as follows: under setting [1], 5.46 ± 0.27; under setting [2], 5.4 ± 0.12.

On to TEELTVIKSSLKDEYQYSFWDLFR [SLC2A12], for which the protein stability index reads like this: under setting [1], 2.38 ± 0.25; under setting [2], 2.29 ± 0.35.

For the sequence TELRRSGSSRSPGSKARAEGRGPV [PLEKHN1], the protein stability index by setting is: under setting [1], 4.84 ± 0.31; under setting [2], 4.96 ± 0.52.

TEQAVALLRDRTGQQSDTAQLELY [SCARA5]: the protein stability index reads like this: under setting [1], 4.61 ± 0.16; under setting [2], 4.42 ± 0.25.

In turn, TETPLEGDFAWERVRGLGLPKLYL [CDKN1A] showed a protein stability index under setting [1] of 2.18 ± 0.15 and a protein stability index under setting [2] of 2.57 ± 0.34.

With TFGAAACSIGFAVRYLNAYTGIVL [POP5], the protein stability index is, setting by setting: under setting [1], 3.18 ± 0.57; under setting [2], 3.45 ± 0.15.

The sequence TFNRWGTLLAVGCNDGRIVIWDFL [RBBP5] came in with a protein stability index under setting [1] of 2.35 ± 0.41 and a protein stability index under setting [2] of 2.18 ± 0.27.

In the case of TFPASVLAPVPTHSTVSELSRSPV [DUSP5], the protein stability index is, setting by setting: under setting [1], 3.92 ± 0.082; under setting [2], 4.14 ± 0.39.

TGESSEPEAKVLHTKRLYRAVVEA [SMG5]: the protein stability index runs as follows: under setting [1], 3.65 ± 0.33; under setting [2], 3.63 ± 0.24.

Sequence TGGSADLFGGFADFGSAAASGSFP [CLINT1] returned a protein stability index under setting [1] of 3.69 ± 0.35 and a protein stability index under setting [2] of 3.62 ± 0.24.

Regarding TGLMVSLLCLLHFSIVSVAAHLAL [RTN2], the protein stability index runs as follows: under setting [1], 3.27 ± 0.11; under setting [2], 2.87 ± 0.27.

As for TGMPMMPQQPVMFAQPMMRPPFGA [SNAP91], the protein stability index runs as follows: under setting [1], 2.97 ± 0.064; under setting [2], 2.67 ± 0.33.

With TIGVEFATRSIQVDGKTIKAQIWD [RAB11A], the protein stability index is, setting by setting: under setting [1], 3.04 ± 0.2; under setting [2], 3.08 ± 0.32.

Regarding TIIFTAAREGRETLKCLSHHVADA [TOR1AIP2], the protein stability index came to 2.42 ± 0.13 under setting [1] and 2.62 ± 0.2 under setting [2].

In the case of TIQQEKLLAEKEEKLQKEQKELQD [SASS6], the protein stability index under setting [1] stood at 5.52 ± 0.31 and the protein stability index under setting [2] worked out at 5.54 ± 0.23.

Sequence TKKRKLGKNPDVDTSFLPDRDREE [FAM50A] showed a protein stability index under setting [1] of 5.18 ± 0.14 and a protein stability index under setting [2] of 5.23 ± 0.41.

As to TKQRIQDQKVPYIFRDNQWVGFDD [CHIT1], the protein stability index is, setting by setting: under setting [1], 3.49 ± 0.47; under setting [2], 3.69 ± 0.4.

Consider TLHNAQTQEPIFTFTASFSGKVFP [TRIM15], for which the protein stability index came out at 2.49 ± 0.23 under setting [1] and 2.56 ± 0.3 under setting [2].

Consider TLRQKAEADKNDKAVKDLVVLLFE [HSP90AB1], for which the protein stability index under setting [1] stood at 3.07 ± 0.39 and the protein stability index under setting [2] stood at 3.12 ± 0.27.

TLSFIVDGQYMGVAFRGLKGKKLY [SPSB1]: the protein stability index turned out to be 2.27 ± 0.46 under setting [1] and 2.36 ± 0.36 under setting [2].

TLTELRRTVQSLEIDLDSMRNLKA [KRT18]: the protein stability index reads like this: under setting [1], 3 ± 0.5; under setting [2], 3.06 ± 0.51.

Regarding TLVGNVAQDLGLKMTDLLSRRLQL [PCDHGC5], the protein stability index reads like this: under setting [1], 2.58 ± 0.66; under setting [2], 2.6 ± 0.57.

Regarding TLYANNVQRVMAQALGIPATECEF [LPCAT4], the protein stability index by setting is: under setting [1], 2.49 ± 0.22; under setting [2], 2.58 ± 0.19.

As to TMLSHYRPFYVNKGNGIGSNEAP [TRIM29], the protein stability index is, setting by setting: under setting [3], 3.1 ± 0.24; under setting [4], 3.14 ± 0.25.

TMQSMFAKNFHVKAVMKTSVLLSW [PTPRD]: the protein stability index reads like this: under setting [1], 2.48 ± 0.73; under setting [2], 2.94 ± 0.42.

As for TPPASPPPSVLISKNEVGIFTTPN [KMT2E], the protein stability index under setting [1] worked out at 4.03 ± 0.18 and the protein stability index under setting [2] is 4.06 ± 0.1.

TPPPGPASAQPLPAPEAAHTTGPT [TFE3]: the protein stability index runs as follows: under setting [1], 5.38 ± 0.27; under setting [2], 5.38 ± 0.084.

TPVVTESTATSITLTWDSGNPEPV [PTPRD]: the protein stability index is, setting by setting: under setting [1], 4.21 ± 0.057; under setting [2], 4.16 ± 0.33.

For TQDGKEQPELPCAMAMGTPSTTER [PXN], the protein stability index runs as follows: under setting [1], 5.21 ± 0.27; under setting [2], 5.18 ± 0.3.

For TQIPADEDTQTDADSSAQAAAQAP [TAF7L], the protein stability index worked out at 5.49 ± 0.072 under setting [1] and 5.51 ± 0.15 under setting [2].

In the case of TQPGIRRARDKALSGGKRKETLV [NET1], the protein stability index reads like this: under setting [3], 4.29 ± 0.3; under setting [4], 4.15 ± 0.38.

TRRHPGGSRVISHYAGQDATDPFV [FADS1]: the protein stability index came to 3.7 ± 0.33 under setting [1] and 3.86 ± 0.089 under setting [2].

With TTTTFPMSNHTRERVTVAKLTLEN [STK38L], the protein stability index came out at 3.52 ± 0.26 under setting [1] and 3.5 ± 0.18 under setting [2].

As for TTYDRRSSQERKFMEERELLGQDE [RSPH3], the protein stability index under setting [1] came to 5.34 ± 0.2 and the protein stability index under setting [2] worked out at 5.39 ± 0.23.

With TWEQTFQELIQEAKPRATWTLKLD [RTP4], the protein stability index is, setting by setting: under setting [1], 2.02 ± 0.24; under setting [2], 2.25 ± 0.33.

The sequence TWKQELLKLMDRHKKDCAREKPFK [ZNF75A] registered a protein stability index under setting [1] of 2.69 ± 0.25 and a protein stability index under setting [2] of 2.88 ± 0.3.

With TYLVSERLEREERNQTQVLRQQQD [FAF2], the protein stability index is, setting by setting: under setting [1], 4.97 ± 0.21; under setting [2], 4.89 ± 0.072.

On to TYNTKVYKMFASRRKQRYWPFSMD [LOXL2], for which the protein stability index reads like this: under setting [1], 2.32 ± 0.51; under setting [2], 1.89 ± 0.15.

Turning to VAACAQTVVSLAAAGQPTPPTSPE [CEBPD], the protein stability index under setting [1] came to 5 ± 0.78 and the protein stability index under setting [2] is 5.29 ± 0.33.

Regarding VAAGRTQKAGVTRSGRLILWEAPP [NEK8], the protein stability index worked out at 2.85 ± 0.24 under setting [1] and 2.94 ± 0.24 under setting [2].

Take VAEAFRALASAQCPQFGIPRKRLK [SPOPL]: the protein stability index stood at 2.73 ± 0.42 under setting [1] and 3 ± 0.34 under setting [2].

With VAGDCLDEKQCKQCANKVLQHMKA [LRRC59], the protein stability index runs as follows: under setting [1], 3.74 ± 0.14; under setting [2], 3.9 ± 0.43.

Sequence VAGGVAVAAIALILGVAFLVRKK [CEND1] yielded a protein stability index under setting [3] of 4.02 ± 0.29 and a protein stability index under setting [4] of 4.16 ± 0.097.

VAKKTPTKRSTLIISGVSKVPIAQ [C2CD2L]: the protein stability index reads like this: under setting [1], 3.02 ± 0.33; under setting [2], 3.24 ± 0.33.

For the sequence VCQALAQVDGGANFSVDRWERKEG [CPOX], the protein stability index came to 4.41 ± 0.14 under setting [1] and 4.1 ± 0.43 under setting [2].

Turning to VDEYFRQPVVDTFDIRILMAKSVK [CARM1], the protein stability index is, setting by setting: under setting [1], 2.47 ± 0.46; under setting [2], 2.64 ± 0.63.
